Measured values taken from IntAct's records for PubMed 12832462.

B1: Nuclear factor NF-kappa-B p105 subunit (Homo sapiens), P19838 (parent)
chain: MAEDDPYLGRPEQMFHLDPSLTHTIFNPEVFQPQMALPTDGPYLQILEQPKQRGFRFRYVCEGPSHGGLPGASSEKNKKSYPQVKICNYVGPAKVIVQLVTNGKNIHLHAHSLVGKHCEDGICTVTAGPKDMVVGFANLGILHVTKKKVFETLEARMTEACIRGYNPGLLVHPDLAYLQAEGGGDRQLGDREKELIRQAALQQTKEMDLSVVRLMFTAFLPDSTGSFTRRLEPVVSDAIYDSKAPNASNLKIVRMDRTAGCVTGGEEIYLLCDKVQKDDIQIRFYEEEENGGVWEGFGDFSPTDVHRQFAIVFKTPKYKDINITKPASVFVQLRRKSDLETSEPKPFLYYPEIKDKEEVQRKRQKLMPNFSDSFGGGSGAGAGGGGMFGSGGGGGGTGSTGPGYSFPHYGFPTYGGITFHPGTTKSNAGMKHGTMDTESKKDPEGCDKSDDKNTVNLFGKVIETTEQDQEPSEATVGNGEVTLTYATGTKEESAGVQDNLFLEKAMQLAKRHANALFDYAVTGDVKMLLAVQRHLTAVQDENGDSVLHLAIIHLHSQLVRDLLEVTSGLISDDIINMRNDLYQTPLHLAVITKQEDVVEDLLRAGADLSLLDRLGNSVLHLAAKEGHDKVLSILLKHKKAALLLDHPNGDGLNAIHLAMMSNSLPCLLLLVAAGADVNAQEQKSGRTALHLAVEHDNISLAGCLLLEGDAHVDSTTYDGTTPLHIAAGRGSTRLAALLKAAGADPLVENFEPLYDLDDSWENAGEDEGVVPGTTPLDMATSWQVFDILNGKPYEPEFTSDDLLAQGDMKQLAEDVKLQLYKLLEIPDPDKNWATLAQKLGLGILNNAFRLSPAPSKTLMDNYEVSGGTVRELVEALRQMGYTEAIEVIQAASSPVKTTSQAHSLPLSPASTRQQIDELRDSDSVCDSGVETSFRKLSFTESLTSGASLLTLNKMPHDYGQEGPLEGKI

Variants of: B1
Conditions: with m3k8_human MAP3K8, P41279
m3k8_human MAP3K8, P41279, sequence (P41279 whole entry): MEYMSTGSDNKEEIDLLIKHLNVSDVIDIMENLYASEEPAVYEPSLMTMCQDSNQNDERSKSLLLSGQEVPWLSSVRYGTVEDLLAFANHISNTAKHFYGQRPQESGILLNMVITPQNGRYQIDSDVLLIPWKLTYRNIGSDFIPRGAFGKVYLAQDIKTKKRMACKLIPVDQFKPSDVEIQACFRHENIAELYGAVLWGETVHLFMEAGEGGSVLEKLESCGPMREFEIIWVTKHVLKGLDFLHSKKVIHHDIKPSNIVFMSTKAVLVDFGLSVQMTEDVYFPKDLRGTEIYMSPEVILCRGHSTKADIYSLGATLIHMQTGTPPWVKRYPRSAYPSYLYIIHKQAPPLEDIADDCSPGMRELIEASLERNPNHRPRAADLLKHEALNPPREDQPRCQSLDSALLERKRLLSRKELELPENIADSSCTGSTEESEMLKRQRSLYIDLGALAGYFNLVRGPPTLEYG

effect of a mutation on the interaction | Variant
decreasing interaction | L841A
